What all share (experiment): cell_activity
The subject of data set [1] is TALEN ssTP53 E6 left (synthetic (Xanthomonas TALE-FokI)?). Conditions: Surveyor (Cel) assay, co-transfected with ssNF1 42.3; pair with P8, 16 bp spacer.
The subject of data set [2] is TALEN ssNF1ex42.2 left (synthetic (Xanthomonas TALE-FokI)?). Conditions: HDR by RFLP, pig fibroblasts, 3 days 30 C; pair with P4, 16 bp spacer.
Data set [3] relates to TALEN ssTP53 E6 right (synthetic (Xanthomonas TALE-FokI)?). The following applies: Surveyor (Cel) assay, co-transfected with ssNF1 42.3; pair with P7, 16 bp spacer.
Data set [4] relates to TALEN ssNF1ex42.1 right (synthetic (Xanthomonas TALE-FokI)?). Conditions: HDR by RFLP, pig fibroblasts, 3 days 30 C; pair with P1, 16 bp spacer.
The test system of data set [5] is TALEN ssNF1ex42.3 right (synthetic (Xanthomonas TALE-FokI)?). The following applies: HDR by RFLP, pig fibroblasts, 3 days 30 C; pair with P5, 16 bp spacer; 25.5% when co-transfected with ssTP53 E6.
Data set [6] concerns TALEN ssNF1ex42.1 left (synthetic (Xanthomonas TALE-FokI)?). The following applies: HDR by RFLP, pig fibroblasts, 3 days 30 C; pair with P2, 16 bp spacer.
In data set [7] the test system is TALEN ssNF1ex42.2 right (synthetic (Xanthomonas TALE-FokI)?). Conditions: HDR by RFLP, pig fibroblasts, 3 days 30 C; pair with P3, 16 bp spacer.
In data set [8] the test system is TALEN ssNF1ex42.3 left (synthetic (Xanthomonas TALE-FokI)?). The following applies: HDR by RFLP, pig fibroblasts, 3 days 30 C; pair with P6, 16 bp spacer; 25.5% when co-transfected with ssTP53 E6.

As for “GGCACCCGTGTCCGCGC (double strand) [TP53 exon 6 site, left half-site]”, in data set [1], the activity amounted to 11.8 % cutting.

Sequence “AAGCACAATGATGATGC (double strand) [NF1 exon 42 site, 42.2 left half-site]” gave an activity (% allele modification) in data set [2] of 45.1.

Sequence “AAGTCAGAGTACATG (double strand) [TP53 exon 6 site, right half-site]” showed an activity in data set [3] of 11.8 % cutting.

Regarding “GTTACTGCGATCCTTG (double strand) [NF1 exon 42 site, 42.1 right half-site]”, the activity (% allele modification) in data set [4] was 54.2.

The sequence “CCTTGATAAGCTGATA (double strand) [NF1 exon 42 site, 42.3 right half-site]” yielded an activity (% allele modification) in data set [5] of 27.2.

“TGTAAGCACAATGATGA (double strand) [NF1 exon 42 site, 42.1 left half-site]”: in data set [6], the activity (% allele modification) amounted to 54.2.

On to “ACTGCGATCCTTGATA (double strand) [NF1 exon 42 site, 42.2 right half-site]”, for which the activity (% allele modification) in data set [7] is 45.1.

As to “GATGATGCCAAACGAC (double strand) [NF1 exon 42 site, 42.3 left half-site]”, in data set [8], the activity (% allele modification) came out at 27.2.

Source of the values: patent US20160160238.
